B1: LMNB1 (parent)
chain: LYKEELEQTYHAKLENARLSSEMN

Variants of: B1
Test: protein stability index of a GFP-peptide fusion (GPS, HEK-293T) (PSI 1-6); higher = more stable
Settings: c terminus: a fixed tail appended
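Also: lentivirally expressed fusions sorted by FACS into six bins by GFP to DsRed ratio, PSI derived from sequencing read proportions per bin multiplied by bin number.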

Variant	protein stability index
LYKEELEQTYHAVLENARLSSEMN	2.8
LYKEELEQTYHAFLENARLSSEMN	2.25
LYKEELEQTYHAQLENARLSSEMN	3.06
LYKEELEQTYHADLENARLSSEMN	4.59
LYKEELEQTYHAILENARLSSEMN	1.95
LYKEELEQTYHARLENARLSSEMN	2.55
LYKEELEQTYHAALENARLSSEMN	3.93
LYKEELEQTYHAELENARLSSEMN	4.33
LYKEELEQTYHAGLENARLSSEMN	4.57
LYKEELEQTYHALLENARLSSEMN	2.38
LYKEELEQTYHAPLENARLSSEMN	4.37
LYKEELEQTYHAMLENARLSSEMN	2.48
LYKEELEQTYHAWLENARLSSEMN	2.65
LYKEELEQTYHACLENARLSSEMN	2.71
LYKEELEQTYHANLENARLSSEMN	3.35
LYKEELEQTYHATLENARLSSEMN	2.06
LYKEELEQTYHAYLENARLSSEMN	1.84
LYKEELEQTYHASLENARLSSEMN	2.82
LYKEELEQTYHAHLENARLSSEMN	3.08
LYKEELEQTYHLKLENARLSSEMN	3.17
LYKEELEQTYHPKLENARLSSEMN	3.73
LYKEELEQTYHNKLENARLSSEMN	4.38
LYKEELEQTYHVKLENARLSSEMN	3.48
LYKEELEQTYHMKLENARLSSEMN	2.36

Variant	protein stability index
LYKEELEQTYHDKLENARLSSEMN	4.61
LYKEELEQTYHQKLENARLSSEMN	4.25
LYKEELEQTYHSKLENARLSSEMN	4.29
LYKEELEQTYHHKLENARLSSEMN	3.71
LYKEELEQTYHIKLENARLSSEMN	2.87
LYKEELEQTYHGKLENARLSSEMN	3.44
LYKEELEQTYHWKLENARLSSEMN	2.65
LYKEELEQTYHCKLENARLSSEMN	2.09
LYKEELEQTYHYKLENARLSSEMN	3.52
LYKEELEQTYHTKLENARLSSEMN	4.08
LYKEELEQTYHKKLENARLSSEMN	4.32
LYKEELEQTYHEKLENARLSSEMN	4.72
LYKEELEQTYNAKLENARLSSEMN	3.14
LYKEELEQTYIAKLENARLSSEMN	3.12
LYKEELEQTYFAKLENARLSSEMN	3.29
LYKEELEQTYCAKLENARLSSEMN	3.73
LYKEELEQTYAAKLENARLSSEMN	3.81
LYKEELEQTYSAKLENARLSSEMN	4.06
LYKEELEQTYPAKLENARLSSEMN	3.91
LYKEELEQTYKAKLENARLSSEMN	2.4
LYKEELEQTYEAKLENARLSSEMN	4.71
LYKEELEQTYRAKLENARLSSEMN	2.88
LYKEELEQTYDAKLENARLSSEMN	4.95
LYKEELEQTYQAKLENARLSSEMN	4.24

Variant	protein stability index
LYKEELEQTYMAKLENARLSSEMN	3.45
LYKEELEQTYYAKLENARLSSEMN	2.48
LYKEELEQTYTAKLENARLSSEMN	4.16
LYKEELEQTYWAKLENARLSSEMN	3.08
LYKEELEQTYLAKLENARLSSEMN	2.84
LYKEELEQTYVAKLENARLSSEMN	3.53
LYKEELEQMYHAKLENARLSSEMN	2.65
LYKEELEQNYHAKLENARLSSEMN	3.88
LYKEELEQWYHAKLENARLSSEMN	3.65
LYKEELEQVYHAKLENARLSSEMN	2.61
LYKEELEQRYHAKLENARLSSEMN	3.64
LYKEELEQPYHAKLENARLSSEMN	4.23
LYKEELEQQYHAKLENARLSSEMN	3.77
LYKEELEQYYHAKLENARLSSEMN	3.31
LYKEELEQSYHAKLENARLSSEMN	3.92
LYKEELEQTKHAKLENARLSSEMN	5.14
LYKEELEQTAHAKLENARLSSEMN	4.25
LYKEELEQTFHAKLENARLSSEMN	3.67
LYKEELEQTMHAKLENARLSSEMN	4.27
LYKEELEQTHHAKLENARLSSEMN	4.8
LYKEELEQTTHAKLENARLSSEMN	4.66
LYKEELEQTVHAKLENARLSSEMN	4.49
LYKEELEQTPHAKLENARLSSEMN	4.4
LYKEELEQTWHAKLENARLSSEMN	2.63

Variant	protein stability index
LYKEELEQTIHAKLENARLSSEMN	4.17
LYKEELEQTSHAKLENARLSSEMN	4.49
LYKEELEQTEHAKLENARLSSEMN	5.55
LYKEELEQTQHAKLENARLSSEMN	4.79
LYKEELEQTCHAKLENARLSSEMN	4.16
LYKEELEQTGHAKLENARLSSEMN	4.52
LYKEELEQTLHAKLENARLSSEMN	4.23
LYKEELEQTRHAKLENARLSSEMN	4.48
LYKEELEQTDHAKLENARLSSEMN	4.97
LYKEELEQTNHAKLENARLSSEMN	4.67
LYKEELEQTYHAKDENARLSSEMN	4.74
LYKEELEQTYHAKIENARLSSEMN	3.46
LYKEELEQTYHAKMENARLSSEMN	3.09
LYKEELEQTYHAKNENARLSSEMN	4.54
LYKEELEQTYHAKAENARLSSEMN	4.49
LYKEELEQTYHAKGENARLSSEMN	4.36
LYKEELEQTYHAKKENARLSSEMN	5.64
LYKEELEQTYHAKFENARLSSEMN	2.58
LYKEELEQTYHAKHENARLSSEMN	4.59
LYKEELEQTYHAKCENARLSSEMN	4.28
LYKEELEQTYHAKEENARLSSEMN	4.64
LYKEELEQTYHAKPENARLSSEMN	5

Reference: the supplement of paper PMC10567573
